Laboratory results reported in US20100120894A1 (UNIVERSITY OF MASSACHUSETTS, published 2010).
Values belong to the binder of their own block, whether it stands above or below them.

How the values were obtained:
[1] = target: T1, ASC-YFP stably expressed in HEK293 cells (UniProt Q9ULZ3 1-195); test: confocal microscopy, HEK293-ASC-YFP cells transfected with PYD-CFP
T1 construct: also called YFP-ASC; HEK293-ASC-YFP; not shown: YFP
Method: Fluorescence intensities of the green (YFP-ASC) and red (PYD-CFP) channels were quantified along selected lines (white lines) and the percentage of ASC-YFP speckles per transfected cells assessed (panel b). c) 293T cells were transfected with expression plasmids encoding HAtagged ASC and CFP-tagged constructs as in panel a. The protein levels of the CFP-tagged PYD proteins in cell lysates were assessed by immunoblot analysis (INPUT, upper panels). Cell extracts were immunoprecipitated (IP) with anti-HA antibodies and immunoblotted (WB) with anti-HA antibody and anti-CFP antibody (lower panel). d) ASC was immunoprecipitated from THP-1 cell lysates primed with Sendai virus, whereas beads without anti-ASC antibody served as a negative control. The presence of ASC, PYHIN-2 and AIM2 was assessed by immunoblot analysis in the cell lysate and the ASC immunoprecipitation. The band above the AIM2 band in the ASC immunoprecipitation corresponds to the heavy chain of the anti-ASC antibody that is also detected by the secondary antibody. E) 293T cells were transfected with a multimerized NF-″B luciferase reporter construct together with fixed amounts of constructs as in (a) alone or together with increasing amounts of ASC. Cellular NF-″B activation was quantified in cell lysates 24 hours after transfection. Data of one representative experiment out of three (panels a, b, c and d) or two (panel e) are depicted.
To study the possibility that these PYHIN proteins associated with ASC in the cytosol, C-terminally tagged CFP PYD-domain fusions were generated. Of note, the putative nuclear localization sequences were predicted to localize to the […] of these molecules. Consistent with these predictions, all of the PYD-CFP fusion proteins were localized in the cytoplasm and formed large cytosolic aggregates in a portion of the cells (FIG. 6).

[2] = target: HA-tagged ASC (human, UniProt Q9ULZ3 1-195, limits assumed); test: cell-based or functional assay
Chain of HA-tagged ASC (Q9ULZ3 whole entry): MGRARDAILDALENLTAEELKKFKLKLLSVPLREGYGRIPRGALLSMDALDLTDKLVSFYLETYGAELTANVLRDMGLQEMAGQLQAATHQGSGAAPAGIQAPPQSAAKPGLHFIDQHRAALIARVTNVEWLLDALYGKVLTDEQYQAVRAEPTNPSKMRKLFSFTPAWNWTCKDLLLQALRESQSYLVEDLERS

T1 sequence (Q9ULZ3 whole entry): as above

binding result [1]: no binding
B3: PYHIN3-PYD (1-84) C-terminally tagged with CFP (other, human, UniProt P41218 1-84, looked up)
chain: MVNEYKKILLLKGFELMDDYHFTSIKSLLAYDLGLTTKMQEEYNRIKITDLMEKKFQGVACLDKLIELAKDMPSLKNLVNNLRK
notes: range 1-84; also called MNDA PYD; not shown: C-terminal CFP from vector pEFBOS-C-term-CFP

binding result [1]: no binding
B4: PYHIN1-PYD (1-84) C-terminally tagged with CFP (other, human, UniProt Q6K0P9 1-84, looked up)
chain: MANNYKKIVLLKGLEVINDYHFRIVKSLLSNDLKLNPKMKEEYDKIQIADLMEEKFPGDAGLGKLIEFFKEIPTLGDLAETLKR
notes: range 1-84; also called IFIX PYD; not shown: C-terminal CFP from vector pEFBOS-C-term-CFP

Continued, binder first:

B1: PYHIN2-PYD (1-84) C-terminally tagged with CFP (other, human, UniProt Q16666 1-84, looked up)
chain: MGKKYKNIVLLKGLEVINDYHFRMVKSLLSNDLKLNLKMREEYDKIQIADLMEEKFRGDAGLGKLIKIFEDIPTLEDLAETLKK
notes: range 1-84; also called IFI16 PYD; not shown: C-terminal CFP from vector pEFBOS-C-term-CFP
binding result [1]: no binding

B2: Full length human AIM2 (AS 1-356) C-terminally tagged with CFP (other, UniProt O14862 1-343, looked up, not shown: large carriers)
chain: MESKYKEILLLTGLDNITDEELDRFKFFLSDEFNIATGKLHTANRIQVATLMIQNAGAVSAVMKTIRIFQKLNYMLLAKRLQEEKEKVDKQYKSVTKPKPLSQAEMSPAASAAIRNDVAKQRAAPKVSPHVKPEQKQMVAQQESIREGFQKRCLPVMVLKAKKPFTFETQEGKQEMFHATVATEKEFFFVKVFNTLLKDKFIPKRIIIIARYYRHSGFLEVNSASRVLDAESDQKVNVPLNIIRKAGETPKINTLQTQPLGTIVNGLFVVQKVTEKKKNILFDLSDNTGKMEVLGVRNEDTMKCKEGDKVRLTFFTLSKNGEKLQLTSGVHSTIKVIKAKKKT
NF-kappaB luciferase reporter activation in 293T cells [2]: ≤ 60 fold
